Assay results from article PMC10023680, “Targeting Ras-binding domain of ELMO1 by computational nanobody design” (Communications Biology, 2023).

B1: ELMO1-RBD (residues 1-82) (domain or fragment, human, UniProt Q92556 1-82, looked up)
chain: MPPPADIVKVAIEWPGAYPKLMEIDQKKPLSAIIKEVCDGWSLANHEYFALQHADSSNFYITEKNRNEIKNGTILRLTTSPA
B2: GST-tagged ELMO1-RBD (residues 1-113), wild-type (domain or fragment, human, UniProt Q92556 1-113, looked up)
chain: MPPPADIVKVAIEWPGAYPKLMEIDQKKPLSAIIKEVCDGWSLANHEYFALQHADSSNFYITEKNRNEIKNGTILRLTTSPAQNAQQLHERIQSSSMDAKLEALKDLASLSRD
notes: the plasmids section describes only His-tagged ELMO1-RBD; also called ELMO1-RBD wild-type; not shown: GST, N-terminal, kept
B3: GST-tagged ELMO1-RBD (residues 1-113) K20E (domain or fragment, human, UniProt Q92556 1-113, looked up)
chain: MPPPADIVKVAIEWPGAYPELMEIDQKKPLSAIIKEVCDGWSLANHEYFALQHADSSNFYITEKNRNEIKNGTILRLTTSPAQNAQQLHERIQSSSMDAKLEALKDLASLSRD
notes: not shown: GST, N-terminal, kept
B4: GST-tagged ELMO1-RBD (residues 1-113) Y18A (domain or fragment, human, UniProt Q92556 1-113, looked up)
chain: MPPPADIVKVAIEWPGAAPKLMEIDQKKPLSAIIKEVCDGWSLANHEYFALQHADSSNFYITEKNRNEIKNGTILRLTTSPAQNAQQLHERIQSSSMDAKLEALKDLASLSRD
notes: as for B3
B5: GST-tagged ELMO1-RBD (residues 1-113) N58A (domain or fragment, human, UniProt Q92556 1-113, looked up)
chain: MPPPADIVKVAIEWPGAYPKLMEIDQKKPLSAIIKEVCDGWSLANHEYFALQHADSSAFYITEKNRNEIKNGTILRLTTSPAQNAQQLHERIQSSSMDAKLEALKDLASLSRD
notes: as for B3
B6: Nb29 (VHH)
VHH: VQLVESGGGLVQAGDSLRLSCAASGLLFSFYIMGWFRQAPGREREFVAAIKWAGDTIYGTDSVKGRFAISRDNAKNTMYLQMNSLKPEDTAVYYCAADRFLTRSVKYTYWGQGTQVTVSS
notes: as Nb01 (designed from PDB 5LMW chain A) with S57A, R67T, T68I (CDR2) and D137T (CDR3) relative to Nb01; keeps Leu29 and Lys59; numbers count on: AHo numbering; S57A, R67T, T68I and D137T are stated against Nb01, not against the parent 5LMW; the old residues may themselves be designed ones; source: E. coli cell-free protein synthesis (with DsbC and GSSG), purified (Ni Sepharose)
B7: Nb02 (VHH)
VHH: VQLVESGGGLVQAGDSLRLSCAASGLMFSFYIMGWFRQAPGREREFVASITWAGDRTYGTDSVKGRFAISRDNAKNTMYLQMNSLKPEDTAVYYCAADRFLTRSVKYDYWGQGTQVTVSS
notes: designed from the parent nanobody chain A of PDB 5LMW; as Nb01 but with T29M and S59T instead of T29L and S59K; numbers count on: AHo numbering; source: E. coli cell-free protein synthesis (with DsbC and GSSG), purified (Ni Sepharose)
B8: Nb29 (VHH)
VHH: VQLVESGGGLVQAGDSLRLSCAASGLLFSFYIMGWFRQAPGREREFVAAIKWAGDTIYGTDSVKGRFAISRDNAKNTMYLQMNSLKPEDTAVYYCAADRFLTRSVKYTYWGQGTQVTVSS
notes: It is Nb01 with S57A, R67T, T68I (CDR2) and D137T (CDR3); S57A, R67T, T68I and D137T are stated against Nb01, not against 5LMW; Numbers count on: AHo numbering; A TEV cleavage site follows the N-terminal poly-histidine tag, but no cleavage is described for the nanobodies; source: E. coli cell-free protein synthesis, purified (Ni Sepharose resin)

What was measured:
Settings in all cases: both partners purified
[1] = biological target: T1, RhoG (residues 1-184) (human, UniProt P84095 1-184); assay: crystal structure; equimolar ELMO1-RBD (residues 1-82) and RhoG mixed at 16 mg/ml, 4 °C for 4 h; hanging-drop vapor diffusion at 20 °C; 1.6 Å
T1 construct: human RhoG, residues 1-184; Loaded with GTPγS for the SPR assays; also called active RhoG; source: Sf9 (baculovirus), purified (HisTrap, TEV, Superdex 75); not shown: poly-histidine tag, N-terminal, cleaved

[2] = biological target: T1, RhoG (residues 1-184); assay: SPR; Biacore T200; GST-ELMO1-RBD (1-113, wild-type or mutants) captured on CM5 chip with GST Capture Kit; GTPγS-bound RhoG injected at 2.2-35.5 μM (Rac1 and Cdc42 measured similarly); 10 mM HEPES pH 7.5, 150 mM NaCl, 1 mM MgCl2, 0.005% P-20; steady-state affinity analysis
[3] = biological target: ELMO1-RBD (residues 1-98) (Homo sapiens, UniProt Q92556); assay: SPR; Biacore T200; ELMO1-RBD (1-98) amine-coupled to CM5 chip; nanobody designs injected at five concentrations (0.5-8 μM); 10 mM HEPES pH 7.5, 150 mM NaCl, 0.005% P-20; single-cycle kinetic analysis
[4] = biological target: T2, ELMO1-RBD (residues 1-98) (Homo sapiens, UniProt Q92556); assay: SPR; ELMO1-RBD (residues 1-98) immobilised on a CM5 chip by amine coupling; 10 mM HEPES pH 7.5, 150 mM NaCl, 0.005% surfactant P-20; five concentrations (0.5-8 uM) of each nanobody injected continuously; single-cycle kinetic analysis; Biacore T200
T2 construct: source: E. coli cell-free protein synthesis, purified (HisTrap, HiTrap Q, Superdex 75); not shown: histidine tag, N-terminal, cleaved

T1 sequence (P84095 1-184): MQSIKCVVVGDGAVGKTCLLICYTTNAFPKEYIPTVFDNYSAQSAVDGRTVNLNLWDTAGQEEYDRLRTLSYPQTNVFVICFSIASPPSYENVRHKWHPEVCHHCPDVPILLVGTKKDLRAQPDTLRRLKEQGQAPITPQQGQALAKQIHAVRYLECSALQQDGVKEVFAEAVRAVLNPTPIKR

Binder | binding result [2] | other results
B1 |  | binding result [1]: binds
B2 | binds | 
B3 | binds | 
B4 | binds | 
B5 | binds | 
B6 |  | Kd [3]: 2000 nM
B7 |  | binding result [3]: no binding (tested: 0.5-8 μM)
B8 |  | Kd [4]: 2020 nM
